Reference: patent publication US20190248900A1 (Y BIOLOGICS, published 2019)

target: human PD-1 (NM_005018.2) over-expressed on cells (human, UniProt Q15116 25-288); experiment: cell-based or functional assay
Sequence (Q15116 25-288): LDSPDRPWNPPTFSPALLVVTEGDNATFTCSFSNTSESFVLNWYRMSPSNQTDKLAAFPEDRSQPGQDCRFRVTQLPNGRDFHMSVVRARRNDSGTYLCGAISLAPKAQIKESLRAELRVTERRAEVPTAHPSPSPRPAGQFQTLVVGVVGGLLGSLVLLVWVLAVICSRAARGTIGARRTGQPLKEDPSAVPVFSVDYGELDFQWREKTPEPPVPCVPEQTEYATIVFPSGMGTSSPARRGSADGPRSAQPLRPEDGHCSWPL

| Binder | EC50 [nM], PD1/PD-L1 blockade bioassay |
| --- | --- |
| PD1-72D10 (antibody, V domains shown) VH: QVQLVESGGGVVQPGRSLRLSCAASGFTFSSYAMHWVRQAPGKGLEWVAVISYDGSNKYYADSVKGRFTISRDNSKNTLYLQMNSLRAEDTAVYYCTTTTFDSWGQGTLVTVSS VL: DIVMTQTPLSLPVTPGEAASISCRSSQSLLDSEDGNTYLDWYLQKPGQSPQLLIYTLSHRASGVPDRFSGSGSGTDFTLKISRVEAEDVGIYYCMQRVEFPFTFGQGTKLEIK | 1.21 nM |
| PD1-74A11 (antibody, V domains shown) VH: QVQLVQSGGGVVQPGRSLRLSCAASGFTFSSYAMHWVRQAPGKGLEWVAVISYDGSNKYYADSVKGRFTISRDNSKNTLYLQMNSLRAEDTAVYYCARTTFDYWGQGTLITVSS VL: DIVMTQTPLSLPVTPGEPASISCRSSQSLFDSDDGNTYLDWYLQKPGQSPQLLIYTLSYRASGVPDRFSGSGSGTDFTLKISRVAAEDVGIYYCMQRVEFPFTFGQGTKVDIK | 1.31 nM |
| PD1-75C10 (antibody, V domains shown) VH: QVQLVESGGGVVQPGRSLRLSCAASGFTFSSYAMHWVRQAPGKGLEWVAVISYDGSNKYYADSVKGRFTISRDNSKNTLYLQMNSLRAEDTAVYYCVPTTFEYWGQGSQVTVSS VL: DIVMTQTPLSLPVTPGEAASISCRSSQSLLDSEDGNTYLDWYLQKPGQSPQLLIYTLSHRASGVPDRFSGSGSGTDFTLKITRVEAEDVGVYYCMQRIEFPYTFGQGTKLEIK | 0.81 nM |
| PD1-45D6(A/4C1) (antibody, V domains shown) VH: QVQLVESGGGVVQPGRSLRLSCAASGFTFSSYAMHWVRQAPGKGLEWVAVISYDGNDKYYADSVKGRFTISRDNSKNTLYLQMNSLRAEDTAVYYCVPTTFEYWGQGTLVTVSS VL: DIVMTQTPLSLPVTPGEPASISCRSSQSLLDSDDGNTYLDWYLQKPGQSPQLLIYTLSHRASGVPDRFSGSGSGTDFTLKISRVEAEDVGIYYCMQRVEFPFTFGQGTKLDIK | 1.76 nM |
| PD1-45D6(A/3G1) (antibody, V domains shown) VH: QVQLVESGGGVVQPGRSLRLSCAASGFTFSSYAMHWVRQVPGKGLEWVAVISYDGNDKYYADSVKGRFTISRDNSKNTLYLQMNSLRAEDTAVYYCVPTTFEYWGQGSQVTVSS VL: DIVMTQTPLSLPVTPGEPASISCRSSQSLLDSEDGNTYLDWYLQKPGQSPQLLIYTLSHRASGVPDRFSGSGSGTDFTLEISRVEAEDVGVYYCMQRVEFPFTFGQGTKLDIK | 0.98 nM |
| PD1-45D6(A/3H4) (antibody, V domains shown) VH: QVQLVESGGGVVQPGRSLRLSCAASGFTFSSYAMHWVRQVPGKGLEWVAVISYDGNDKYYADSVKGRFTISRDNSKNTLYLQMNSLRAEDTAVYYCVPTTFEYWGQGSQVTVSS VL: DIVMTQTPLSLPVTPGEPASISCRSSQSLFDSDDGNTYLDWYLQKPGQSPQLLIYTLSHRASGVSDRFSGSGSGTDFTLKISRVEAEDSGIYYCMQRVEFPFTFGQGTKLDIK | 1.67 nM |
| PD1-45D6(A/3H6) (antibody, V domains shown) VH: QVQLVESGGGVVQPGRSLRLSCAASGFTFSSYAMHWVRQVPGKGLEWVAVISYDGNDKYYADSVKGRFTISRDNSKNTLYLQMNSLRAEDTAVYYCVPTTFEYWGQGSQVTVSS VL: DIVMTQTPLSLPVTPGEAASISCRSSQSLLDSEDGNTYLDWYLQKPGQSPQLLIYTLSHRASGVPDRFSGSGSGTDFTLKISRVEAEDVGVYYCMQRVEFPFTFGQGTKLEIK | 1.49 nM |
| PD1-45D6(A/4C9) (antibody, V domains shown) VH: QVQLVESGGGVVQPGRSLRLSCAASGFTFSSYAMHWVRQAPGKGLEWVAVISYDGNDKYYADSVKGRFTISRDNSKNTLYLQMNSLRAEDTAVYYCVPTTFEYWGQGTLVTVSS VL: DIVMTQTPLSLPVTPGEAASISCRSSQSLLDSEDGNTYLDWYLQKPGQSPQLLIYTLSHRASGVPDRFSGSGSGTDFTLKISRVAAEDVGIYYCMQRVEFPFTFGQGTKLEIK | 2.72 nM |
| PD1-45D6(A/4D4) (antibody, V domains shown) VH: QVQLVESGGGVVQPGRSLRLSCAASGFTFSSYAMHWVRQAPGKGLEWVAVISYDGNDKYYADSVKGRFTISRDNSKNTLYLQMNSLRAEDTAVYYCVPTTFEYWGQGTLVTVSS VL: DIVMTQTPLSLPVTPGEPASISCRSSQSLLDSEDGNTYLDWYLQKPGQSPQLLIYTLSHRASGVPDRFSGSGSGTEFNLRISRVEAEDVGIYYCMQRVEFPFTFGQGTKVDIK | 1.74 nM |
| PD1-45D6(A/4H6) (antibody, V domains shown) VH: QVQLVESGGGVVQPGRSLRLSCAASGFTFSSYAMHWVRQAPGKGLEWVAVISYDGNDKYYADSVKGRFTISRDNSKNTLYLQMNSLRAEDTAVYYCVPTTFEYWGQGTLVTVSS VL: DIVMTQTPLSLPVTPGEPASISCRSSQSLFDSDDGNTYLDWYLQKPGQSPQLLIYTLSHRASGVPDRFSGSGSGTDFTLKISRVEAEDVGLYYCMQRVEFPFTFGQGTKLEIK | 1.19 nM |
| PD1-45D6(A/5A6) (antibody, V domains shown) VH: QVQLVESGGGVVQPGRSLRLSCAASGFTFRLYAMHWVRQAPGKGLEWVAVISHDGNDKYYADSVKGRFTISRDNSKNTLYLQMNSLRAEDTAVYYCVPTTFEYWGQGTLVTVSS VL: DIVMTQTPLSLPVTPGEPASISCRSSQSLLDSEDGNTYLDWYLQKPGQSPQLLIYTLSHRASGVPDRFSGSGSGTDFTLKISRVEAEDVGVYYCMQRIDFPYTFGQGTKLDIK | 0.92 nM |
| PD1-45D6(A/5B12) (antibody, V domains shown) VH: QVQLVESGGGVVQPGRSLRLSCAASGFTFSVYAMHWVRQAPGKGLEWVAVISYDGNDKYYADSVKGRFTISRDNSKNTLYLQMNSLRAEDTAVYYCVPTTFEYWGQGTLVTVSS VL: DIVMTQTPLSLPVTPGEAASISCRSSQSLLDSEDGNTYLDWYLQKPGQSPQLLIYTLSHRASGVPDRFSGSGSGTDFTLKISRVEAEDVGIYYCMQRVEFPFTFGQGTKVEIK | 0.8 nM |
| PD1-45D6(A/5C8) (antibody, V domains shown) VH: QVQLVESGGGVVQPGRSLRLSCAASGFTFMRYAMHWVRQAPGKGLEWVAVISYDGNDKYYADSVKGRFTISRDNSKNTLYLQMNSLRAEDTAVYYCVPTTFEYWGQGTLVTVSS VL: DIVMTQSPLSLPVTPGEPASISCRSSQSLLDSEDGNTYLDWYLQKPGQSPQLLIYTLSHRASGVPDRFSGSGSGTDFTLKISRVEAEDVGVYYCMQRVEFPFTFGQGTKLDIK | 1.44 nM |
| PD1-45D6(A/5H9) (antibody, V domains shown) VH: QVQLVESGGGVVQPGRSLRLSCAASGFTFWTYAMHWVRQAPGKGLEWVAVISYDGNDKYYADSVKGRFTISRDNSKNTLYLQMNSLRAEDTAVYYCVPTTFEYWGQGTLVTVSS VL: DIVMTQTPLSLPVTPGEPASISCRSSQSLLDSDDGNTYLDWYLQKPGQSPQLLIYTLSHRASGVSDRFSGSGSGTDFTLEISRVEAEDVGVYYCMQRRDFPFTFGQGTKVEIK | 2 nM |
| PD1-49A2(A/2B10) (antibody, V domains shown) VH: QVQLVESGGGVVQPGRSLRLSCAASGFTFLVYAMHWVRQAPGKGLEWVAVISYDGSHKYYADSVKGRFTISRDNSKNTLYLQMNSLRAEDTAVYYCTTTTFDSWGQGTLVTVSS VL: DIVMTQTPLSLPVTPGEPASISCRSSQSLLDSDDGNTYLDWYLQKPGQSPQLLIYTLSHRASGVPDRFSGSGSGTDFTLKISRVAAEDVGLYYCMQRVEFPFTFGQGTKLDIK | 0.65 nM |
| PD1-49A2(A/1F12) (antibody, V domains shown) VH: QVQLVESGGGVVQPGRSLRLSCAASGFTFRNYAMHWVRQAPGKGLEWVAVISYDGQHKYYADSVKGRFTISRDNSKNTLYLQMNSLRAEDTAVYYCTTTTFDSWSQGTLVTVSS VL: DIVMTQTPHSLPVTPGEPASISCRSSQSLLDSEDGNTYLDWYLQKPGQSPQLLIYTLSHRALGVPDRFSGSGSGTDFTLKISRVEAEDSGIYYCMQRIEFPYTFGQGTKLEIK | 1.03 nM |
| PD1-49A2(A/1H4) (antibody, V domains shown) VH: QVQLVESGGGVVQPGRSLRLSCAASGFTFPIYAMHWVRQAPGKGLEWVAVISYDGAHKYYADSVKGRFTISRDNSKNTLYLQMNSLRAEDTAVYYCTTTTFDSWGQGTLVTVSS VL: DIVMTQSPLSLPVTPGEAASISCRSSQSLLDSEDGNTYLDWYLQKPGQSPQLLIYTLSHRASGVPDRFSGSGSGTDFTLKISRVEAEDSGIYYCMQRVEFPYTFGQGTKLDIK | 0.84 nM |
| PD1-49A2(A/2A11) (antibody, V domains shown) VH: QVQLVESGGGVVQPGRSLRLSCAASGFTFRSYAMHWVRQAPGKGLEWVAVISYDGQDKYYADSVKGRFTISRDNSKNTLYLQMNSLRAEDTAVYYCTTTTFDSWGQGTLVTVSS VL: DIVMTQTPLSLPVTPGEPASISCRSSQSLFDSDDGNTYLDWYLQKPGQSPRLLIYTLSHRALGVPDRFSGSGSGTDFTLKISRVAAEDVGLYYCLQRMGFPYTFGQGTKLEIK | 0.79 nM |
| PD1-74A01 (antibody, V domains shown) VH: QVQLVESGGGVVQPGRSLRLSCAASGFTFSSYAMHWVRQAPGKGLEWVAVISYDGSNKYYADSVKGRFTISRDNSKNTLYLQMNSLRSEDTAVYYCVPTTFEYWGQGSQVTVSS VL: DIVMTQTPLSLPVTPGEPASISCRSSQSLLDRGGGHTYLDWYLQKPGQSPQLLIYTLSHRASGVPDRFSGSGSGTDFTLKISRVEAEDVGIYYCMQRKEFPLTFGPGTKLEIK | 1.01 nM |
| PD1-74H12 (antibody, V domains shown) VH: QVQLVESGGGVVQPGRSLRLSCAASGFTFSSYAMHWVRQAPGKGLEWVAVISYDGSNKYYADSVKGRFTISRDNSKNMLYLEMNSLRAEDTAVYYCVPTTFEYWGQGSQVTVSS VL: DIVMTQTPLSLSVTPGEPASISCRSSQSLLDSDDGNTYLDWYLQKPGQSPQLLIYTLSHRASGVPDRFSGRGSHTDFTLTISSVEAEDVGVYYCMQRIHFPLTFGQGTRLEIK | 0.98 nM |
